Experimental data published in the supplement of paper PMC10065799, “High-throughput profiling of sequence recognition by tyrosine kinases and SH2 domains using bacterial peptide display” (eLife, 2023).

Columns and labels:
c-Src SH2 = experiment: SH2 binding enrichment of the phosphorylated peptide, bacterial display (enrichment ratio); higher = better substrate or ligand; peptides without Tyr show the background
Grb2 SH2 = Grb2 SH2 (UniProt P62993); experiment: as above
SHP2-C SH2 = experiment: as above
MERTK = MERTK (UniProt Q12866); experiment: phosphorylation enrichment, bacterial display (enrichment ratio); higher = better substrate or ligand; peptides without Tyr show the background
EPHB2 = EPHB2 (UniProt P29323); experiment: as above
FGFR3 = FGFR3 (UniProt P22607); experiment: as above
AncSZ = experiment: as above
Fyn = Fyn (UniProt P06241); experiment: as above
Hck = Hck (UniProt P08631); experiment: as above
Fes = Fes (UniProt P07332); experiment: as above
EPHB1 = EPHB1 (UniProt P54762); experiment: as above
c-Src = experiment: as above
c-Abl (mouse) = experiment: as above
Jak2 = Jak2 (UniProt O60674); experiment: as above
Fer (mouse) = experiment: as above
FGFR1 = FGFR1 (UniProt P11362); experiment: as above
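Throughout, for SH2 binding enrichment of the phosphorylated peptide, bacterial display: peptide library displayed on the E. coli surface as eCPX fusions, selected cells deep-sequenced, score is each peptide's frequency after selection divided by its frequency in the input.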
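Throughout, for phosphorylation enrichment, bacterial display: 11-residue human phosphosite peptides and single-mutation variants displayed on the E. coli surface, counted by deep sequencing, each peptide's frequency after selection divided by its frequency in the unselected input library; frequency after pTyr selection over input frequency; kinase dosed for 20-30% of maximal phosphorylation in three min.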

Chain of Hck (P08631 whole entry, looked up): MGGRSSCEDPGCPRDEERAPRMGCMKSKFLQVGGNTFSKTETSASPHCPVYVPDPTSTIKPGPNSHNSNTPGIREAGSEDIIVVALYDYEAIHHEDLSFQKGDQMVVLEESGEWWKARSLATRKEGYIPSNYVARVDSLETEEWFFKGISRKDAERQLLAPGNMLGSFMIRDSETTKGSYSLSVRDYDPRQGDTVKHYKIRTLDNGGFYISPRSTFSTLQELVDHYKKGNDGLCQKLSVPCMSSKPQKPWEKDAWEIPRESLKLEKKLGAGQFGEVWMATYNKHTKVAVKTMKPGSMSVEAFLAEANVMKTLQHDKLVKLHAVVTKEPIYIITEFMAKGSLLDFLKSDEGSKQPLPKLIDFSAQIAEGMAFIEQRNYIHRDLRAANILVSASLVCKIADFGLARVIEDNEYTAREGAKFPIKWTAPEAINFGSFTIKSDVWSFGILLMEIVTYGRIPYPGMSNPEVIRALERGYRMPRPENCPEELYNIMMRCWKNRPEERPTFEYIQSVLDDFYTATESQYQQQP
Chain of Grb2 SH2 (P62993 whole entry, looked up): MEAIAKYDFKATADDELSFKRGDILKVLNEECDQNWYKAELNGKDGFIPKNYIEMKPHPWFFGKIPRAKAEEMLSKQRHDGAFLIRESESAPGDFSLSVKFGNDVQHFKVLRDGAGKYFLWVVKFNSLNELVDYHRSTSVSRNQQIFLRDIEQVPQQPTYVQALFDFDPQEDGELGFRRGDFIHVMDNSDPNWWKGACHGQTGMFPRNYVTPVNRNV
Chain of Jak2 (O60674 whole entry, looked up): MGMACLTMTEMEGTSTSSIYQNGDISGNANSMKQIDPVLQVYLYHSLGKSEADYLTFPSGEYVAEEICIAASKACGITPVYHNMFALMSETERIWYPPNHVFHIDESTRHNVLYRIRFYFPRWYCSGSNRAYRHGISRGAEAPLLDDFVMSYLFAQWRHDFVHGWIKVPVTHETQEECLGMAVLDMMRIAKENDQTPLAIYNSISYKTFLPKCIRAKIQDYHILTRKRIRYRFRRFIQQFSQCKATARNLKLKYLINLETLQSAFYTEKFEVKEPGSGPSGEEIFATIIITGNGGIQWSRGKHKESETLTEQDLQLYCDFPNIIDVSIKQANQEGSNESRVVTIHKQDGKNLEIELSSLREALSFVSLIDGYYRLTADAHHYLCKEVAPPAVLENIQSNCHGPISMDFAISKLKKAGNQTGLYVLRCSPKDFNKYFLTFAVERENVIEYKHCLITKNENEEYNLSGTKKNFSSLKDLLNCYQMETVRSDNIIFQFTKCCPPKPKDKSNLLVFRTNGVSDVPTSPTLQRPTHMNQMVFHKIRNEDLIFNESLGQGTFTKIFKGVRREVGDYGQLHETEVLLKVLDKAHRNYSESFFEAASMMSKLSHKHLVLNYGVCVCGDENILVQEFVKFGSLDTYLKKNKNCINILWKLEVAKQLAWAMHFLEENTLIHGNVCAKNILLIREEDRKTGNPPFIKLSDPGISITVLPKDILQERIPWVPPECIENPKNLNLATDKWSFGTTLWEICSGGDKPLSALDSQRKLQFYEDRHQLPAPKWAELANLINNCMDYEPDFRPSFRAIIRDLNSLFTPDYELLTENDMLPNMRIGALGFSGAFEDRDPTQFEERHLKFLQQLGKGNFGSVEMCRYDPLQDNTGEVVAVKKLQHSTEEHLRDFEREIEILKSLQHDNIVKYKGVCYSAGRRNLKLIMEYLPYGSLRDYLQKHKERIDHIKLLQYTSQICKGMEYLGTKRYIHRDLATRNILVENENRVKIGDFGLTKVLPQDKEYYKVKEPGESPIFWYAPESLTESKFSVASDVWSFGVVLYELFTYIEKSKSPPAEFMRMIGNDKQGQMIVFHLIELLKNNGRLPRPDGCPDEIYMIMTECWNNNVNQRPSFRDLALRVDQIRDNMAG
Chain of Fes (P07332 whole entry, looked up): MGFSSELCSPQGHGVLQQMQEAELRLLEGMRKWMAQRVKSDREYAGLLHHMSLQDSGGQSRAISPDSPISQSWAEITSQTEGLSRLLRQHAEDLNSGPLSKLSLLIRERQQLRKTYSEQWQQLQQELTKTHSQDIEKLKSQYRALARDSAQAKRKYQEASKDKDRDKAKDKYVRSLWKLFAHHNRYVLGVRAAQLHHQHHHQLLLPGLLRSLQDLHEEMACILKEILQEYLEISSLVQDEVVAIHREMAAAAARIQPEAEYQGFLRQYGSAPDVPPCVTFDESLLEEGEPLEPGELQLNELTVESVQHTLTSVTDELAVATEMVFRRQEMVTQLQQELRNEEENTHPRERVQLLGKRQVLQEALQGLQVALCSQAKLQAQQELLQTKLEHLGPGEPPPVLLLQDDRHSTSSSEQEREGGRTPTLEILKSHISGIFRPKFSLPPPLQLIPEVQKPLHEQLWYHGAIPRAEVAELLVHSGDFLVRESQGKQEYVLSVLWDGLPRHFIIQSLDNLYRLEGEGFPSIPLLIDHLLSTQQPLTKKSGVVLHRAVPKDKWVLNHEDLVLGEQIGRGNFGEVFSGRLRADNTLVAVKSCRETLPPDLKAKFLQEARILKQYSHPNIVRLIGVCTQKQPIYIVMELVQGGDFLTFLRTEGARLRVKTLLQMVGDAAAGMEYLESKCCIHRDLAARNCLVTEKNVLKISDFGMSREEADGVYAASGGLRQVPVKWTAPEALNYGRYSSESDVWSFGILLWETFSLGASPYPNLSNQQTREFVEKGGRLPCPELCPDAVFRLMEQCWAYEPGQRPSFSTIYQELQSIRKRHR
Chain of Fyn (P06241 whole entry, looked up): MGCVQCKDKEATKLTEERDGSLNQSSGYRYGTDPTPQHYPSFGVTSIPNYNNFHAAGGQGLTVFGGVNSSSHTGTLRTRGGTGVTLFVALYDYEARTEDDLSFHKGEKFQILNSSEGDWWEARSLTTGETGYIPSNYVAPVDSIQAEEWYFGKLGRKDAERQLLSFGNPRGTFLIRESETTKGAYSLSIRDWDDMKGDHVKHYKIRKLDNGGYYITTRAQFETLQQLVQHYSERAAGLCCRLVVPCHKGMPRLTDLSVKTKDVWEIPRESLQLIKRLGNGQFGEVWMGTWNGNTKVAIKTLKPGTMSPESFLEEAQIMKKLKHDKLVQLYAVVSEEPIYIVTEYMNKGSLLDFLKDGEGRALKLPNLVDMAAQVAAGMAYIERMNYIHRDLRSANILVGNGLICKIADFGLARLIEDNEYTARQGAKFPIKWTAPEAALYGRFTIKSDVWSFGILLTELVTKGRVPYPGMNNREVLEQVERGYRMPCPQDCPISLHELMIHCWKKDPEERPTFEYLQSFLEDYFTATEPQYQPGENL
Chain of FGFR3 (P22607 whole entry, looked up): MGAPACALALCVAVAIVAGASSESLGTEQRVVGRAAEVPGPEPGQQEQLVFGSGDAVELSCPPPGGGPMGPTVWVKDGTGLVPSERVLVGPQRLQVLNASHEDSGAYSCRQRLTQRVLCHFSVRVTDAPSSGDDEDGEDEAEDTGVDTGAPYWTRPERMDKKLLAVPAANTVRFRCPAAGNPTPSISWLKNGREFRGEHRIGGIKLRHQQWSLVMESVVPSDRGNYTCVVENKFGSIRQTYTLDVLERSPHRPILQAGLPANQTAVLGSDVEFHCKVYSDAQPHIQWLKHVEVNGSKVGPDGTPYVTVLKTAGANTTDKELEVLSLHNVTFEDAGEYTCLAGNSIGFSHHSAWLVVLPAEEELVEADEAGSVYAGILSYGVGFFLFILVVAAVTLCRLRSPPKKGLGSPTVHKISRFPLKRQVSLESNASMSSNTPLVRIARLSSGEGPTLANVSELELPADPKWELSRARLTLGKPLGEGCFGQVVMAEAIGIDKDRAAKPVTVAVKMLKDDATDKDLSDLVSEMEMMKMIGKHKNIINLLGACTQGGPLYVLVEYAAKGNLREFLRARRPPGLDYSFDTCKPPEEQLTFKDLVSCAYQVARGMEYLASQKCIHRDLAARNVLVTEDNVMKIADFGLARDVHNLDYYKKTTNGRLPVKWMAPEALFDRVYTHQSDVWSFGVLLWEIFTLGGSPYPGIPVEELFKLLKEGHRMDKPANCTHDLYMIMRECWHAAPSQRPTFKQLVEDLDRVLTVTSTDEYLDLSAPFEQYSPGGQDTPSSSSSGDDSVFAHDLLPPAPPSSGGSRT
Chain of MERTK (Q12866 whole entry, looked up): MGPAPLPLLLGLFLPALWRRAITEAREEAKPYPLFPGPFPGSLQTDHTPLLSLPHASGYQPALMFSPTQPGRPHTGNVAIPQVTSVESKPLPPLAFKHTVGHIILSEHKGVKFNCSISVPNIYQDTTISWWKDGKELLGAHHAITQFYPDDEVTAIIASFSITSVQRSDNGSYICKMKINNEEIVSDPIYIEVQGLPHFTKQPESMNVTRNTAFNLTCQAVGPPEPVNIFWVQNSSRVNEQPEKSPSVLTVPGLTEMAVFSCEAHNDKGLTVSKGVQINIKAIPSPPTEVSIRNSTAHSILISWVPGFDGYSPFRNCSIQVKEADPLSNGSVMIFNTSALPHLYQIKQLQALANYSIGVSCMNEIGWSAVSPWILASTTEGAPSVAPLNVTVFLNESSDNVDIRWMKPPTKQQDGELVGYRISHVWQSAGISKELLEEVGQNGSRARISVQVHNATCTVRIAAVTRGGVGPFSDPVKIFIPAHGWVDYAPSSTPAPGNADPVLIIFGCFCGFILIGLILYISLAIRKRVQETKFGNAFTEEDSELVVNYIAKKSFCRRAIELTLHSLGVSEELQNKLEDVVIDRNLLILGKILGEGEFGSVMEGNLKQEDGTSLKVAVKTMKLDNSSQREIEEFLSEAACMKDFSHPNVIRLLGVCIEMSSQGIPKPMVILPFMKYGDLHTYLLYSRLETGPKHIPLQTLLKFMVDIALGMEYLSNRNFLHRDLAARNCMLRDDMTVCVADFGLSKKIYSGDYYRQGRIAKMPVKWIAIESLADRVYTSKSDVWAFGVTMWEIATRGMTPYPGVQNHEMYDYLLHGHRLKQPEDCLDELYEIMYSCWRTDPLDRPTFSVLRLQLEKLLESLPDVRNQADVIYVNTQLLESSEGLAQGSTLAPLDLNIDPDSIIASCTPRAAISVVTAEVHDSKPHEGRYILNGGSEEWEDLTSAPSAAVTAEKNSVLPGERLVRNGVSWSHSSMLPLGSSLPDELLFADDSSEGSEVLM

| Sequence | SH2 binding enrichment (c-Src SH2) | SH2 binding enrichment (Grb2 SH2) | SH2 binding enrichment (SHP2-C SH2) | phosphorylation enrichment (MERTK) | phosphorylation enrichment (EPHB2) | phosphorylation enrichment (FGFR3) | phosphorylation enrichment (AncSZ) | phosphorylation enrichment (Fyn) | phosphorylation enrichment (Hck) | phosphorylation enrichment (Fes) | phosphorylation enrichment (EPHB1) | phosphorylation enrichment (c-Src) | phosphorylation enrichment (c-Abl (mouse)) | phosphorylation enrichment (Jak2) | phosphorylation enrichment (Fer (mouse)) | phosphorylation enrichment (FGFR1) |
| --- | --- | --- | --- | --- | --- | --- | --- | --- | --- | --- | --- | --- | --- | --- | --- | --- |
| PLFKIYVAELI [MRPL28_Y230] | 0.574 | 0.82 | 0.634 | 0.707 | 0.772 | 1.54 | 2.14 | 0.658 | 0.738 | 2.35 | 0.919 | 0.791 | 0.947 | 1.71 | 0.978 | 0.806 |
| VYAADYYKLLG [ROR2_Y645] | 0.789 | 0.981 | 0.46 | 5.31 | 1.78 | 10.1 | 1.28 | 1.01 | 1.28 | 0.944 | 2.38 | 2.26 | 1.99 | 7.96 | 0.516 | 12.8 |
| QHVPDYRQNVF [PCDHGA1_Y890_YF] | 0.508 | 0.888 | 0.678 | 0.54 | 0.597 | 0.704 | 0.889 | 0.602 | 0.585 | 1.03 | 0.583 | 0.572 | 0.798 | 0.991 | 0.578 | 0.59 |
| MECLPYGSLRD [JAK2_Y934_Y931C] | 0.467 | 0.785 | 0.468 | 0.409 | 0.577 | 0.794 | 1.08 | 0.753 | 0.711 | 1.29 | 0.598 | 1.65 | 0.75 | 1.07 | 0.669 | 0.522 |
| DPHKIFEFVNS [IRF3_Y107_Y107F] | 0.425 | 0.662 | 0.703 | 0.412 | 0.539 | 0.596 | 0.791 | 0.606 | 0.607 | 0.88 | 0.54 | 0.417 | 0.431 | 0.615 | 0.771 | 0.643 |
| ISRASYYRKGG [ALK_Y1282_Y1278S] | 0.362 | 0.655 | 0.426 | 0.576 | 0.428 | 0.532 | 0.588 | 0.511 | 0.496 | 0.701 | 0.427 | 0.509 | 0.569 | 0.51 | 0.473 | 0.409 |
| SVTCTYSPALI [TP53_Y126_N131I] | 0.349 | 0.659 | 0.663 | 0.602 | 0.779 | 0.954 | 1.64 | 0.646 | 0.804 | 1.8 | 0.906 | 0.817 | 1.13 | 1.52 | 1.09 | 0.534 |
| VGTKRYMAPEV [ACVRL1_Y375] | 0.511 | 0.804 | 0.616 | 0.389 | 0.428 | 0.446 | 0.611 | 0.361 | 0.407 | 0.61 | 0.351 | 0.373 | 0.532 | 0.637 | 0.395 | 0.413 |
